Data published in patent publication US20200299408A1.
Numbering of substitutions follows the chain as printed. Names and notes keep the numbering of the source.

B1: murine 30A1 (antibody, V domains shown)
VH: QVQLKESGPGLVAPSQSLSITCTVSGFSLTNYAIHWVRQPPGKGLDWLGVIWAGGNTKYNSALMSRLSFSKDNSKSQVFLEINSLQTDDTAMYYCAREDSSGYVALDYWGQGTSVTVSS
VL: NIVMTQSPSSLAVSAGEKVTMSCKSSQSLLSGRTRKNYLAWYQQKPGQSPKLLIYWASTRESGVPDRFTGSGSGTDFTLTISSVQAEDLAVYYCKQSYYLLTFGAGTKLELK
B2: murine 13A3 (antibody, V domains shown)
VH: EVQLQQSGPELVKPGASVRISCKASGYTFTSYYIHWMKQRPGQGLEWIGWIYPGNVNTKYNEKFKGKATLTADNSSSTANMQLSSLTSEDSAVYFCARNHDYYFDYWGQGTTLTVSS
VL: B1 VL with N1D, M4L, S31N, G32S, Y99I, L101R, A105G, L111I
B3: humanized 30A1: VH3 graft + A24V / K4 graft (antibody, V domains shown)
VH: EVQLVESGGGLVQPGGSLRLSCAVSGFSLTNYAIHWVRQAPGKGLEWVGVIWAGGNTKYNSALMSRFTISRDNSKNTLYLQMNSLRAEDTAVYYCAREDSSGYVALDYWGQGTLVTVSS
VL: DIVMTQSPDSLAVSLGERATINCKSSQSLLSGRTRKNYLAWYQQKPGQPPKLLIYWASTRESGVPDRFSGSGSGTDFTLTISSLQAEDVAVYYCKQSYYLLTFGQGTKVEIK
B4: 18F12 (antibody, V domains shown)
VH: QVQLQQSGPELVKPGASVKISCKASGYSFTNYYMHWVKQRPGQGLEWIGWISPGSGSIKYNEKFKGKATLTADTSSSTAYMQLSSLTSEDSAVYYCARDGYSLYFFDFWGQGTTLTVSS
VL: B1 VL with N1D, S22T, S31N, G32S, Y98F, Y99I, L101R, A105G
B5: 27H5-1 (antibody, V domains shown)
VH: QVQLQQSGPELVKPGTSVKISCKTSGYSFINYYTHWVKQRPGQGLEWIGWIYPGNGNIKYNEKFMGKATLTADTSSTTAHMHLSSLVSEDSAVYYCARDSYGSYYFDYWGQGTTLTVSS
VL: DIVMTQSPSSLAVSVGEKVTMSCKSSQSLLNSRTRKNYLAWYQQKPGQSPKLLIYWASTRESGVPVRFTGSGSGTDFTLTISSVQAEDLAVYYCTQSFILRTFGGGTKLEIK
B6: 14C7 (antibody, V domains shown)
VH: EVQLQQSGPELVKPGTSVKISCKASGFSFTNYYIHWMKQRPGQGLEWIGWIYPGSDNTKFNDKFKGKATLTADTSSTTAYMQLSSLTSEDSAVYYCARDSITNYYFDYWGQGTTLTVSS
VL: DVVMTQTPSSLAVSTGEKVTMTCKSSQSLLNIRTRKNCLAWYQQKPGQSPKLLIFWASTRYSGVPDRFTGSGSGTDFTLTIRSVQPEDLAVYYCTQSYTLRTFGGGTKLEIK
B7: muSP34 (antibody, V domains shown)
VH: EVQLVESGGGLVQPKGSLKLSCAASGFTFNTYAMNWVRQAPGKGLEWVARIRSKYNNYATYYADSVKDRFTISRDDSQSILYLQMNNLKTEDTAMYYCVRHGNFGNSYVSWFAYWGQGTLVTVSS
VL: QAVVTQESALTTSPGETVTLTCRSSTGAVTTSNYANWVQEKPDHLFTGLIGGTNKRAPGVPARFSGSLIGDKAALTITGAQTEDEAIYFCALWYSNLWVFGGGTKLTVL
B8: 38E4v1 (bispecific antibody, part only; not given: anti-HER2 arm and constant regions, V domains shown, not shown: another chain or arm of the molecule; a dimerising Fc or GST)
VH: EVQLVQSGAEVKKPGASVKVSCKASGFTFTSYYIHWVRQAPGQGLEWIGWIYPENDNTKYNEKFKDRVTITADTSTSTAYLELSSLRSEDTAVYYCARDGYSRYYFDYWGQGTLVTVSS
VL: B3 VL with S31N, G32S, P49S, A57T, E61K, Y98F, Y99I, L101R
B9: hu38E4.v1 Fab (Fab, V domains shown)
VH: B8 VH
VL: B3 VL with S31N, G32S, P49S, A57T, E61K, Y98F, Y99I, L101R
B10: SP34v52 Fab (Fab, V domains shown)
VH: B7 VH with K15G, K19R, Q78K, S79N, I80T, N87S, K89R, T90A, M95V
VL: EAVVTQEPSLTVSPGGTVTLTCRSSTGAVTTSNYANWVQQKPGQAPRGLIGGTNKRAPWTPARFSGSLLGGKAALTLSGAQPEDEAEYYCALWYSNLWVFGGGTKLTVL

Biological target: commercial CD3ε
Assay: binding affinity on commercial CD3ε (Creative Biomart CD3E-2194H); method not given

Chain of commercial CD3ε (P07766 22-126): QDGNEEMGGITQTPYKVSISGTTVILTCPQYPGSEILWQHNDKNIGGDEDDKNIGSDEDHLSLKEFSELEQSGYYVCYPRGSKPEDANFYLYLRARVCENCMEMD

Row | Binder | Kd [nM]
1 | B1 | 0.4
2 | B2 | 0.7
3 | B3 | 1.7

Biological target: CD3 antigen of Figures 3B and 3C (not named)
Assay: kinetic table of IgGs; method and antigen not stated

Row | Binder | Kd [nM] | koff [s⁻¹] | kon [M⁻¹ s⁻¹]
4 | B4 | 0.119 | 1.59e-05 | 134000
5 | B5 | 0.492 | 0.000115 | 234000
6 | B6 | 0.228 | 3.79e-05 | 166000
7 | B7 | 0.249 | 4e-05 | 161000

Biological target: human CD3 on T cells (human) (UniProt P07766)
Assay: Biacore, monovalent KD of the CD3 arm; form of the CD3 antigen not stated on the sheet [panel B]

Chain of human CD3 on T cells (human) (P07766 22-207 limits assumed): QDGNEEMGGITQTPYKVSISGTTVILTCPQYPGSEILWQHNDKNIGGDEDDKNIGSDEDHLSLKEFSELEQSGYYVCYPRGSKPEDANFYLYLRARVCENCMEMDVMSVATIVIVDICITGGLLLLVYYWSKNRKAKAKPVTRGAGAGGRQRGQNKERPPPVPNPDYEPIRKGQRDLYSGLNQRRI

Row | Binder | Kd [nM]
8 | B8 | 1.3

Biological target: hCD3ε1-27-Fc
Assay: monovalent binding affinity (p-1384), method not stated on the sheet

Chain of hCD3ε1-27-Fc (fusion chain, as listed by the source): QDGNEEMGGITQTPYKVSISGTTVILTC

Row | Binder | Kd [nM]
9 | B9 | 1
10 | B10 | 11
